Assay results as given in the RNAGym collection of RNA variant scans (doi:10.7554/elife.80360).

B1: CPEB3 Ribozyme (parent)
chain: GGGGGCCACAGCAGAAGCGUUCACGUCGCGGCCCCUGUCAGAUUCUGGUGAAUCUGCGAAUUCUGCUGU

Variants of: B1
Assay: self-cleavage, relative activity (ratio to wild type); higher = more cleavage; co-transcriptional

First: A23G G58A
Second: A23G G58U
The self-cleavage of the first is higher: 0.991 for the first, 0.972 for the second.

First: C24A C63G
Second: U21G C57G
The self-cleavage of the first is higher: 0.392 for the first, 0.235 for the second.

First: U21G C35G
Second: U21G C35U
The self-cleavage of the first is lower: 0.225 for the first, 0.361 for the second.

Going from U21G U49G to U21G U49A, the self-cleavage rises from 0.486 to 0.527.

A23G G50U and A23G G50A are the same in self-cleavage: 0.971 for the first, 0.971 for the second.

Compared with U21G U36G, U21G U36C is lower in self-cleavage: 0.232 for the first, 0.134 for the second.

Going from C24A G31A to C22G A23C, the self-cleavage falls from 0.372 to 0.179.

Going from C22G A23U to C22U A51U, the self-cleavage rises from 0.24 to 0.295.

Going from C22A U62C to C22A U62A, the self-cleavage falls from 0.17 to 0.148.

First: U21G U67C
Second: U21G U67A
The self-cleavage of the first is lower: 0.458 for the first, 0.549 for the second.

Going from U21G G28A to U21G G28C, the self-cleavage falls from 0.245 to 0.162.

Compared with A23G C45A, C22A C57A is lower in self-cleavage: 0.955 for the first, 0.174 for the second.

First: A23C U49G
Second: C24G A40U
The self-cleavage of the first is higher: 0.916 for the first, 0.14 for the second.

Going from C22A C45U to C22A C45A, the self-cleavage falls from 0.158 to 0.155.

Compared with A23U U62G, A23U U62C is lower in self-cleavage: 0.894 for the first, 0.885 for the second.

Compared with C24A C32G, A23C C29G is higher in self-cleavage: 0.234 for the first, 0.485 for the second.

Going from C22U A59G to C22G U64G, the self-cleavage falls from 0.324 to 0.157.

Going from C22G G58A to A23G G28A, the self-cleavage rises from 0.103 to 0.136.

Compared with A23G G28C, C22U G30U is higher in self-cleavage: 0.13 for the first, 0.221 for the second.

Compared with C22U G30A, C22A G25C is higher in self-cleavage: 0.164 for the first, 0.255 for the second.

Going from C22A U53C to C22A U43C, the self-cleavage falls from 0.239 to 0.167.

First: C22G G31A
Second: C22G G31C
The self-cleavage of the first is higher: 0.137 for the first, 0.0776 for the second.

Compared with C22A U67C, A23C G37U is higher in self-cleavage: 0.21 for the first, 0.299 for the second.

First: U21G G56A
Second: U21G G56C
The self-cleavage of the first is higher: 0.774 for the first, 0.495 for the second.

A23U G58A and A23U G58C are the same in self-cleavage: 1.02 for the first, 1.02 for the second.

Going from A23U G58U to A23G C57A, the self-cleavage falls from 1.01 to 0.394.

Compared with A23U G37U, A23U G37A is higher in self-cleavage: 0.347 for the first, 0.384 for the second.

First: A23U G37C
Second: C24A G58C
The self-cleavage of the first is lower: 0.149 for the first, 0.509 for the second.

A23G U46A and A23G U46G are the same in self-cleavage: 1.01 for the first, 1.01 for the second.

Going from C22A U26A to C22A U55G, the self-cleavage rises from 0.117 to 0.162.

Going from A23U A42G to A23U A42U, the self-cleavage rises from 0.978 to 1.

Going from A23U A42C to C22G U53A, the self-cleavage falls from 0.992 to 0.136.

Compared with A23G C27G, A23U C34U is higher in self-cleavage: 0.175 for the first, 1.01 for the second.

First: A23U C45A
Second: A23U C45G
The self-cleavage of the first is lower: 0.997 for the first, 1 for the second.

Going from A23U C24U to A23U C24G, the self-cleavage falls from 0.924 to 0.556.

First: U21G G47A
Second: U21G G47C
The self-cleavage of the first is lower: 0.715 for the first, 0.818 for the second.

Compared with U21G G47U, C22A C33G is lower in self-cleavage: 0.638 for the first, 0.168 for the second.

First: C22A A60U
Second: C22A A60G
The self-cleavage of the first is lower: 0.222 for the first, 0.279 for the second.

Compared with A23U U64C, C22A G30A is lower in self-cleavage: 0.905 for the first, 0.167 for the second.

Compared with C24G A42C, A23C G56U is higher in self-cleavage: 0.385 for the first, 0.88 for the second.

First: A23G A59G
Second: C24A G37U
The self-cleavage of the first is higher: 1.01 for the first, 0.231 for the second.

First: A23G A40U
Second: A23U G28A
The self-cleavage of the first is higher: 0.665 for the first, 0.226 for the second.

First: A23U C33U
Second: C22G G50A
The self-cleavage of the first is higher: 0.998 for the first, 0.189 for the second.

First: A23G A51C
Second: A23G A51G
The self-cleavage of the first is lower: 0.914 for the first, 0.962 for the second.

Compared with U21G G31C, A23C U67G is higher in self-cleavage: 0.181 for the first, 0.968 for the second.

Compared with A23G G56A, C22G C27G is lower in self-cleavage: 0.953 for the first, 0.16 for the second.

First: C22G C32U
Second: A23U U38G
The self-cleavage of the first is lower: 0.182 for the first, 0.206 for the second.

Going from A23U U38A to A23U U38C, the self-cleavage rises from 0.95 to 0.96.

Compared with A23C U64A, C22A C34U is lower in self-cleavage: 0.833 for the first, 0.219 for the second.

Going from C22A C34G to C22U A52U, the self-cleavage rises from 0.175 to 0.315.

Going from A23C G25C to A23C G25U, the self-cleavage rises from 0.151 to 0.176.

Going from C24A U64C to C24A U64G, the self-cleavage rises from 0.471 to 0.508.

Going from A23C U69G to A23G C39U, the self-cleavage falls from 1.02 to 0.86.

Compared with A23C C35U, A23C C35A is lower in self-cleavage: 0.844 for the first, 0.26 for the second.

Going from A23C U38A to A23C U38C, the self-cleavage rises from 0.75 to 0.85.

Going from C24A A52C to C24A A52U, the self-cleavage falls from 0.634 to 0.632.

Compared with C24A U55A, C24A U55C is lower in self-cleavage: 0.617 for the first, 0.434 for the second.

Compared with C22U G48A, C22U U49A is lower in self-cleavage: 0.379 for the first, 0.297 for the second.

First: A23U C57G
Second: C22G G68C
The self-cleavage of the first is higher: 0.358 for the first, 0.156 for the second.

Compared with C22G G68A, A23G U61A is higher in self-cleavage: 0.267 for the first, 0.867 for the second.

Compared with A23G U61G, A23G C34G is lower in self-cleavage: 0.734 for the first, 0.243 for the second.

First: A23C U26C
Second: A23C U26A
The self-cleavage of the first is higher: 0.966 for the first, 0.628 for the second.

Compared with C22A U36C, C22A G68C is higher in self-cleavage: 0.169 for the first, 0.27 for the second.

Compared with C22A G68A, C22A G68U is higher in self-cleavage: 0.247 for the first, 0.264 for the second.

First: A23C G31A
Second: C24A U61G
The self-cleavage of the first is higher: 0.86 for the first, 0.347 for the second.

Compared with C24A U61A, A23U C35A is lower in self-cleavage: 0.452 for the first, 0.395 for the second.

Compared with C24A U36C, A23C C32U is higher in self-cleavage: 0.27 for the first, 0.85 for the second.

Compared with C22G C66U, C22A A23U is higher in self-cleavage: 0.182 for the first, 0.281 for the second.

Going from C22A A23G to C22U U64C, the self-cleavage rises from 0.198 to 0.279.

First: C22U U64G
Second: C24A A42U
The self-cleavage of the first is lower: 0.237 for the first, 0.66 for the second.

First: C24A A42C
Second: A23C U43C
The self-cleavage of the first is lower: 0.629 for the first, 0.89 for the second.

Going from C22U C39U to C24A U49C, the self-cleavage rises from 0.179 to 0.74.

Compared with C24A U49G, C22G G28A is lower in self-cleavage: 0.686 for the first, 0.16 for the second.

Going from A23G G25C to C24A A59C, the self-cleavage rises from 0.169 to 0.32.

First: C22U C54G
Second: C22U C54U
The self-cleavage of the first is lower: 0.285 for the first, 0.349 for the second.

Compared with C24A U69C, C22G A40G is lower in self-cleavage: 0.972 for the first, 0.204 for the second.

Compared with C22G A40U, C22G A40C is higher in self-cleavage: 0.105 for the first, 0.23 for the second.

Going from A23U U61C to A23U G47C, the self-cleavage rises from 0.895 to 0.999.

Going from C22U U62C to A23G A42U, the self-cleavage rises from 0.171 to 0.862.

First: A23G A42C
Second: A23G A42G
The self-cleavage of the first is higher: 0.911 for the first, 0.867 for the second.

First: C22G C57A
Second: C22G C57U
The self-cleavage of the first is higher: 0.221 for the first, 0.148 for the second.

Going from C22G C33G to A23C C27G, the self-cleavage rises from 0.216 to 0.228.

Compared with C22A A51C, C22G U44G is lower in self-cleavage: 0.176 for the first, 0.16 for the second.

A23U U55A showed a self-cleavage of 0.877.
